In the supplement of paper PMC7877785:
± gives the uncertainty stated by the source.

Experiment: self-splicing fitness, log relative to wild type (ln ratio); higher = more splicing; Tetrahymena group I intron in knt gene, E. coli kanamycin selection, DiMSum; sequences stand for … in CUCUCU…GGAGGGAAAAGUUAUCAGGCAUGCACCUGGUAGCUAGUCUUUAAACCAAUAGAUUGCAUCGGUUUAAAAGGCAAGACCGUCAAAUUGCGGGAAAGGGGUCAACAGCCGUUCAGUACCAAGUCUCAGGGGAAACUUUGAGAUGGCCUUGCAAAGGGUAUGGUAAUAAGCUGACGGACAUGGUCCUAACCACGCAGCCAAGUCCUAAGUCAACAGAUCUUCUGUUGAUAUGGAUGCAGUUCACAGACUAAAUGUCGGUCGGGGAAGAUGUAUUCUUCUCAUAAGAUAUAGUCGGACCUCUCCUUAAUGGGAGCUAGCGGAUGAAGUGAUGCAACACUGGAGCCGCUGGGAACUAAUUUGUAUGCGAAAGUAUAUUGAUUAGUUUUGGAGUACUCGUGGUCG
Outline: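 A randomised library covering all eight P1ex-region intron nucleotides was built with the intron in the knt kanamycin-resistance gene on pET-22b(+) and held in E. coli BL21(DE3). Cells were grown overnight at 37°C or 30°C on LB agar, with or without 25 μg/mL kanamycin, plus 100 μg/mL carbenicillin, 50 μM IPTG and 0.2% rhamnose, and pooled colonies were amplicon-sequenced on an Illumina HiSeq 2500. DiMSum fitness is the error-weighted combination of wild-type-normalised replicate fold changes, kanamycin versus none.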

| Sequence | self-splicing fitness (ln) (30 °C) | self-splicing fitness (ln) (37 °C) |
| --- | --- | --- |
| GCGCAGCAAUAUUACGGCUG | -3.01 ± 0.3 | -1.7 ± 0.29 |
| UUUCAGCAAUAUUACGCACU | -0.429 ± 0.077 | -0.09 ± 0.092 |
| CCAUAGCAAUAUUACGAGUG | -1.44 ± 0.092 | -0.172 ± 0.097 |
| CCAAAGCAAUAUUACGAUCU | -2.43 ± 0.14 | -2.97 ± 0.35 |
| UCUAAGCAAUAUUACGACGG | 0.00998 ± 0.076 | 0.286 ± 0.11 |
| ACAUAGCAAUAUUACGCAUA | -3.01 ± 0.17 | -1.85 ± 0.12 |
| CGCGAGCAAUAUUACGCUUA | -2.27 ± 0.23 | -1.97 ± 0.24 |
| UAGGAGCAAUAUUACGAGUG | -3.74 ± 0.33 | -1.43 ± 0.17 |
| AGCUAGCAAUAUUACGCAGC | – | -0.17 ± 0.24 |
| UCGAAGCAAUAUUACGAUGC | -2.65 ± 0.15 | -1.92 ± 0.18 |
| GGGGAGCAAUAUUACGUAGG | -2.68 ± 0.2 | -1.85 ± 0.21 |
| UAGAAGCAAUAUUACGGGGU | -3.13 ± 0.17 | -1.27 ± 0.22 |
| GUGUAGCAAUAUUACGGCGG | -2.81 ± 0.23 | -1.6 ± 0.19 |
| GUAAAGCAAUAUUACGACAU | 0.272 ± 0.012 | 0.348 ± 0.032 |
| AAGCAGCAAUAUUACGAUCA | -1.28 ± 0.091 | -0.405 ± 0.11 |
| CCGCAGCAAUAUUACGCCCG | -0.205 ± 0.11 | 0.732 ± 0.16 |
| UAGCAGCAAUAUUACGGUGU | -3.53 ± 0.15 | -1.84 ± 0.15 |
| GUCUAGCAAUAUUACGGUUG | -2.54 ± 0.092 | -1.53 ± 0.1 |
| AUAAAGCAAUAUUACGGUAG | -2.82 ± 0.1 | -1.74 ± 0.12 |
| GGUGAGCAAUAUUACGGGCG | -1.39 ± 0.14 | -0.473 ± 0.14 |
| GCUUAGCAAUAUUACGCACA | -1.02 ± 0.14 | 0.3 ± 0.15 |
| UGUAAGCAAUAUUACGCGCA | -0.603 ± 0.14 | -0.167 ± 0.17 |
| CCCAAGCAAUAUUACGACAA | -3.14 ± 0.17 | -3.12 ± 0.22 |
| ACUGAGCAAUAUUACGUACG | -2.42 ± 0.22 | -2.07 ± 0.25 |

| Sequence | self-splicing fitness (ln) (30 °C) | self-splicing fitness (ln) (37 °C) |
| --- | --- | --- |
| ACAGAGCAAUAUUACGGGCU | -3.02 ± 0.22 | -2.58 ± 0.2 |
| UUACAGCAAUAUUACGCAUU | -2.73 ± 0.17 | -1.52 ± 0.14 |
| AGUUAGCAAUAUUACGAAUC | -2.57 ± 0.15 | -2.03 ± 0.21 |
| CGGGAGCAAUAUUACGCAAC | -2.66 ± 0.24 | – |
| GAGGAGCAAUAUUACGUCGA | -2.17 ± 0.16 | -1.61 ± 0.15 |
| ACCGAGCAAUAUUACGCAGU | -3.67 ± 0.16 | -2.48 ± 0.16 |
| AUUAAGCAAUAUUACGCUUA | -2.18 ± 0.26 | -1.82 ± 0.25 |
| UAAUAGCAAUAUUACGGGUG | -1.9 ± 0.096 | -0.875 ± 0.094 |
| GGACAGCAAUAUUACGCCCA | -0.886 ± 0.45 | -0.212 ± 0.36 |
| UCGGAGCAAUAUUACGGAAU | – | -2.38 ± 0.42 |
| UUAUAGCAAUAUUACGCAAA | -2.85 ± 0.22 | -1.51 ± 0.16 |
| UGCUAGCAAUAUUACGGUCA | 0.0813 ± 0.11 | 0.529 ± 0.13 |
| AACGAGCAAUAUUACGCUGC | -3.01 ± 0.26 | -3.06 ± 0.35 |
| GCCCAGCAAUAUUACGUUUA | -1.7 ± 0.079 | -0.893 ± 0.078 |
| ACUGAGCAAUAUUACGCCAA | -3.45 ± 0.29 | -2.74 ± 0.22 |
| AAUGAGCAAUAUUACGUUCA | -1.46 ± 0.12 | -0.27 ± 0.13 |
| CGAUAGCAAUAUUACGUUUU | -3.78 ± 0.19 | -2.76 ± 0.16 |
| CCACAGCAAUAUUACGGAUG | -1.97 ± 0.082 | -1.19 ± 0.1 |
| UACUAGCAAUAUUACGGGAG | -2.3 ± 0.11 | -1.19 ± 0.1 |
| AUCCAGCAAUAUUACGACGA | -0.497 ± 0.14 | 0.0611 ± 0.12 |
| UUGAAGCAAUAUUACGAGGC | -3.28 ± 0.39 | -1.84 ± 0.47 |
| ACGUAGCAAUAUUACGUAUA | -3.36 ± 0.33 | -2.1 ± 0.2 |
| CUGGAGCAAUAUUACGUCGU | -3.88 ± 0.23 | -2.39 ± 0.22 |
| UUGAAGCAAUAUUACGUCCG | 0.0359 ± 0.093 | 0.4 ± 0.12 |
